Measurements as given in the supplement of paper PMC10724198.
± gives the standard deviation of the averaged measurements.

Tests used:
Saccharomyces cerevisiae [1] = experiment: protein stability index of tFT-peptide fusion (C-terminal peptide) (PSI (0-1 scale)); higher = more stable (slower turnover)
Description: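 MPS profiling in S. cerevisiae of the tFT-X12 degron library: putative degron peptides plus stable controls, 12 aa, fused to the C-terminus of a sfGFP-mCherry timer. Cells are FACS-sorted into 8 mCherry/sfGFP bins and deep-sequenced. PSI runs from 0 (unstable) to 1 (stable). Backgrounds are wild type, das1Δ and doa10Δ at 30 °C, and wild type, das1Δ, cdc34-1 and cdc53-1 at 37 °C; 2-3 technical replicates each.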

Saccharomyces cerevisiae [2] = experiment: as above; details: genetic background: wild type; temperature: 30 C
[3] = genetic background: cdc34-1, temperature: 37 C
[4] = genetic background: cdc53-1, temperature: 37 C
[5] = genetic background: das1 deletion, temperature: 30 C
[6] = genetic background: das1 deletion, temperature: 37 C
[7] = genetic background: doa10 deletion, temperature: 30 C
[8] = genetic background: wild type, temperature: 30 C
[9] = genetic background: wild type, temperature: 37 C
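Further: PSI is a weighted mean of sequencing reads over stability bins, variants kept only with over 10 reads, mCherry proximal and sfGFP distal, peptide attached via GGGS linker.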

Sequence | protein stability index (Saccharomyces cerevisiae [1]; [3]) | protein stability index (Saccharomyces cerevisiae [1]; [4]) | protein stability index (Saccharomyces cerevisiae [1]; [5]) | protein stability index (Saccharomyces cerevisiae [1]; [6]) | protein stability index (Saccharomyces cerevisiae [1]; [7]) | protein stability index (Saccharomyces cerevisiae [1]; [8]) | protein stability index (Saccharomyces cerevisiae [1]; [9]) | protein stability index (Saccharomyces cerevisiae [2])
LSPPPLSFPFSA | 0.704 ± 0.0072 | 0.753 ± 0.02 | 0.623 ± 0.012 | 0.737 ± 0.011 | 0.643 ± 0.017 | 0.666 ± 0.024 | 0.7118 ± 0.0069 | 0.136 ± 0.021
CFLLSYRWVFLC | 0.0855 ± 0.0055 | 0.0678 ± 0.0095 | 0.177 ± 0.033 | 0.2381 ± 0.0016 | 0.0531 ± 0.0053 | 0.0411 ± 0.018 | 0.0605 ± 0.03 | 0.0949 ± 0.027
LFLLSVNLLLGY | 0.0581 ± 0.025 | 0.0949 ± 0.028 | 0.138 ± 0.035 | 0.191 ± 0.035 | 0.105 ± 0.0095 | 0.112 ± 0.04 | 0.163 ± 0.0081 | 0.237 ± 0.065
QKGLFYCVILYC | 0.169 ± 0.019 | 0.253 ± 0.034 | 0.214 ± 0.027 | 0.3829 ± 0.0019 | 0.148 ± 0.017 | 0.156 ± 0.032 | 0.272 ± 0.0046 | 0.316 ± 0.017
LVWSGLIVVVGG | 0.179 ± 0.024 | 0.204 ± 0.064 | 0.2 ± 0.03 | 0.318 ± 0.013 | 0.176 ± 0.033 | 0.195 ± 0.033 | 0.269 ± 0.012 | 0.3 ± 0.042
CFWLLSSLLLFL | 0.462 ± 0.016 | 0.474 ± 0.0089 | 0.429 ± 0.017 | 0.5398 ± 0.0016 | 0.492 ± 0.0067 | 0.416 ± 0.034 | 0.514 ± 0.0075 | 0.453 ± 0.019
GIFVRIVCIDVA | 0.125 ± 0.0095 | 0.183 ± 0.0066 | 0.178 ± 0.032 | 0.302 ± 0.007 | 0.143 ± 0.0085 | 0.165 ± 0.021 | 0.2851 ± 0.0006 | 0.2651 ± 0.0024
GVFRYKLILRKM | 0.527 ± 0.056 | 0.614 ± 0.018 | 0.586 ± 0.015 | 0.634 ± 0.017 | 0.269 ± 0.0066 | 0.272 ± 0.014 | 0.435 ± 0.012 | 0.337 ± 0.05
HCLGWCFSRLSS | 0.654 ± 0.043 | 0.7199 ± 0.00078 | 0.653 ± 0.021 | 0.766 ± 0.0092 | 0.186 ± 0.013 | 0.206 ± 0.027 | 0.4302 ± 0.0015 | 0.289 ± 0.012
RLPFPVVLFLLF | 0.392 ± 0.033 | 0.465 ± 0.028 | 0.387 ± 0.041 | 0.515 ± 0.026 | 0.3 ± 0.008 | 0.28 ± 0.024 | 0.404 ± 0.011 | 0.352 ± 0.013
SCFCFRVLLCSF | 0.333 ± 0.041 | 0.348 ± 0.0054 | 0.336 ± 0.023 | 0.402 ± 0.019 | 0.325 ± 0.021 | 0.297 ± 0.019 | 0.364 ± 0.0086 | 0.383 ± 0.0064
CWFGLVSLFWVV | 0.49 ± 0.051 | 0.52 ± 0.012 | 0.421 ± 0.04 | 0.576 ± 0.0068 | 0.275 ± 0.0067 | 0.299 ± 0.015 | 0.434 ± 0.016 | 0.429
LPTLDCPLHRLF | 0.694 ± 0.026 | 0.8 ± 0.0093 | 0.641 ± 0.012 | 0.7615 ± 0.0076 | 0.674 ± 0.016 | 0.654 ± 0.0035 | 0.733 ± 0.016 | 0.559 ± 0.084
AVPTSPYSLIVY | 0.524 ± 0.0083 | 0.495 ± 0.088 | 0.367 ± 0.0063 | 0.54146 ± 0.00044 | 0.326 ± 0.011 | 0.337 ± 0.021 | 0.485 ± 0.011 | 0.476 ± 0.022
GLPRASPLPIPV | 0.553 ± 0.032 | 0.591 ± 0.006 | 0.447 ± 0.021 | 0.6021 ± 0.0017 | 0.425 ± 0.01 | 0.443 ± 0.016 | 0.57 ± 0.0065 | 0.517 ± 0.048
MGDFGFIFVFFL | 0.544 ± 0.007 | 0.606 ± 0.035 | 0.427 ± 0.027 | 0.6479 ± 0.0044 | 0.383 ± 0.0084 | 0.414 ± 0.008 | 0.59233 ± 0.00044 | 0.502 ± 0.02
ALTLSYAIKLKV | 0.36 ± 0.02 | 0.395 ± 0.022 | 0.313 ± 0.032 | 0.4594 ± 0.00077 | 0.248 ± 0.0066 | 0.265 ± 0.025 | 0.401 ± 0.027 | 0.372 ± 0.014
LVPYLWWLVFAL | 0.189 ± 0.015 | 0.125 ± 0.023 | 0.192 ± 0.028 | 0.319 ± 0.046 | 0.202 ± 0.011 | 0.143 ± 0.019 | 0.24 ± 0.026 | 0.274 ± 0.027
IYNIIFKYRTIT | 0.525 ± 0.036 | 0.581 ± 0.014 | 0.575 ± 0.0086 | 0.661 ± 0.073 | 0.0671 ± 0.0022 | 0.0987 ± 0.019 | 0.118 ± 0.016 | 0.127 ± 0.084
VWGLGWLVVGVG | 0.179 ± 0.0033 | 0.218 ± 0.029 | 0.185 ± 0.023 | 0.284 ± 0.012 | 0.165 ± 0.0044 | 0.179 ± 0.018 | 0.267 ± 0.0082 | 0.221 ± 0.011

Sequence | protein stability index (Saccharomyces cerevisiae [1]; [3]) | protein stability index (Saccharomyces cerevisiae [1]; [4]) | protein stability index (Saccharomyces cerevisiae [1]; [5]) | protein stability index (Saccharomyces cerevisiae [1]; [6]) | protein stability index (Saccharomyces cerevisiae [1]; [7]) | protein stability index (Saccharomyces cerevisiae [1]; [8]) | protein stability index (Saccharomyces cerevisiae [1]; [9]) | protein stability index (Saccharomyces cerevisiae [2])
TSFCIFFVRFVI | 0.374 ± 0.059 | 0.478 ± 0.021 | 0.365 ± 0.022 | 0.50904 ± 0.00041 | 0.277 ± 0.021 | 0.289 ± 0.041 | 0.469 ± 0.015 | 0.322 ± 0.025
FSCWLFMLCVFL | 0.4339 ± 0.0012 | 0.459 ± 0.015 | 0.401 ± 0.013 | 0.466 ± 0.026 | 0.37 ± 0.017 | 0.316 ± 0.023 | 0.454 ± 0.025 | 0.393 ± 0.025
FRFGAKISLIVL | 0.569 ± 0.019 | 0.565 ± 0.014 | 0.47 ± 0.018 | 0.584 ± 0.015 | 0.189 ± 0.0063 | 0.225 ± 0.033 | 0.42 ± 0.034 | 0.368 ± 0.064
LPIFWVWFSVFR | 0.232 ± 0.012 | 0.243 ± 0.022 | 0.269 ± 0.035 | 0.445 ± 0.027 | 0.334 ± 0.027 | 0.257 ± 0.034 | 0.3973 ± 0.0026 | 0.349 ± 0.0062
CFYVGFLGYFVF | 0.447 ± 0.026 | 0.556 ± 0.005 | 0.357 ± 0.04 | 0.55 ± 0.027 | 0.342 ± 0.0064 | 0.367 ± 0.011 | 0.505 ± 0.014 | 0.42 ± 0.0044
GRWLYSACVALN | 0.62 ± 0.072 | 0.71 ± 0.014 | 0.596 ± 0.022 | 0.7063 ± 0.0033 | 0.195 ± 0.0073 | 0.196 ± 0.026 | 0.4027 ± 0.0021 | 0.395 ± 0.017
SLCPFLCILCFG | 0.327 ± 0.0041 | 0.321 ± 0.036 | 0.28 ± 0.023 | 0.402 ± 0.0015 | 0.245 ± 0.0064 | 0.259 ± 0.021 | 0.347 ± 0.0085 | 0.355 ± 0.009
STVGAWGRVGEG | 0.435 ± 0.018 | 0.462 ± 0.038 | 0.418 ± 0.035 | 0.484 ± 0.0078 | 0.45024 ± 0.00039 | 0.438 ± 0.016 | 0.472 ± 0.0089 | 0.459 ± 0.025
FFPFHPHVLRLL | 0.421 ± 0.044 | 0.433 ± 0.014 | 0.477 ± 0.039 | 0.6373 ± 0.0012 | 0.215 ± 0.0068 | 0.203 ± 0.026 | 0.324 ± 0.014 | 0.282 ± 0.053
VCFAWWGARCVA | 0.601 ± 0.01 | 0.619 ± 0.0063 | 0.468 ± 0.026 | 0.6475 ± 0.0032 | 0.304 ± 0.024 | 0.357 ± 0.028 | 0.534 ± 0.029 | 0.477 ± 0.023
LSARVFCFWFFS | 0.586 ± 0.018 | 0.635 ± 0.011 | 0.549 ± 0.05 | 0.677 ± 0.028 | 0.187 ± 0.017 | 0.201 ± 0.011 | 0.2852 ± 0.0022 | 0.31 ± 0.024
CGPLLVTLVLSM | 0.445 ± 0.045 | 0.423 ± 0.02 | 0.305 ± 0.032 | 0.5011 ± 0.0028 | 0.304 ± 0.01 | 0.306 ± 0.018 | 0.476 ± 0.012 | 0.404 ± 0.0049
YRLTIVWFFLAL | 0.434 ± 0.028 | 0.519 ± 0.006 | 0.354 ± 0.026 | 0.609 ± 0.034 | 0.3504 ± 0.002 | 0.349 ± 0.012 | 0.513 ± 0.011 | 0.427 ± 0.055
RGVGSGGLEGIG | 0.509 ± 0.06 | 0.5457 ± 0.0032 | 0.5178 ± 0.001 | 0.543 ± 0.025 | 0.51 ± 0.004 | 0.514 ± 0.021 | 0.5404 ± 0.0019 | 0.541 ± 0.061
LLGHLFTMLVIY | 0.211 ± 0.18 | 0.157 ± 0.023 | 0.286 ± 0.053 | 0.366 ± 0.0077 | 0.397 ± 0.0055 | 0.234 ± 0.019 | 0.311 ± 0.012 | 0.308 ± 0.014
FERKVHSRWLFF | 0.56888 ± 0.00051 | 0.745 ± 0.022 | 0.658 ± 0.011 | 0.7407 ± 0.00086 | 0.0981 ± 0.019 | 0.15 ± 0.016 | 0.437 ± 0.018 | 0.23 ± 0.038
HVLGSIYWAIFV | 0.497 ± 0.02 | 0.493 ± 0.028 | 0.407 ± 0.024 | 0.563 ± 0.023 | 0.289 ± 0.0029 | 0.314 ± 0.03 | 0.499 ± 0.011 | 0.428 ± 0.011
LQCVYFVFFICF | 0.2682 ± 0.0023 | 0.4 ± 0.016 | 0.266 ± 0.018 | 0.412 ± 0.0067 | 0.235 ± 0.0054 | 0.251 ± 0.015 | 0.37 ± 0.032 | 0.399 ± 0.051
AVLAALVSTLAG | 0.548 ± 0.019 | 0.565 ± 0.0091 | 0.383 ± 0.024 | 0.5888 ± 0.0053 | 0.349 ± 0.013 | 0.406 ± 0.028 | 0.553 ± 0.026 | 0.4785 ± 0.00075
